According to the supplement of paper PMC10567573:

B1: MMP1 (parent)
chain: FHGTRQYKFDPKTKRILTLQKANS
B2: SNX8 (parent)
chain: LHQETQLIHVYLPLTSHILRAFVN

Variants of: B1
Assay: protein stability index of a GFP-peptide fusion (GPS, HEK-293T) (PSI 1-6); higher = more stable
Conditions: c terminus: a fixed tail appended
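Note: lentivirally expressed fusions sorted by FACS into six bins by GFP to DsRed ratio, PSI derived from sequencing read proportions per bin multiplied by bin number.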

Protein stability index: each site, then its substitutions
S24: Q 2.07, R 1.3, T 1.65, V 1.79, Y 1.67

Variants of: B2
Assay: as above
Conditions: c terminus: a fixed tail appended

Protein stability index: each site, then its substitutions
L1: A 2.75, D 3.07, E 3.18, F 3.82, H 1.85, I 2.88, K 3.1, N 2.75, P 3.01, Q 2.18, R 2.06, T 3.62, V 2.64
H2: D 3.62, F 2.04, G 2.72, L 1.83, N 2.5, P 2.04, Q 2.5, R 1.82, S 2.03, T 1.68, V 2.6, W 3.21, Y 2.96
Q3: A 3.04, C 2.06, D 2.8, E 2.55, F 3.79, G 2.67, H 2.62, I 3.42, K 4.06, L 2.24, M 2.15, N 2.96, P 2.31, R 2.48, S 3.32, V 2.47, W 2.73, Y 3.12
E4: A 1.83, C 1.83, F 2.34, G 2.64, H 1.82, I 2.46, K 4.66, L 2.8, M 2.04, N 3.07, P 2.18, Q 3.2, R 2.25, T 1.4, V 3.22, W 1.8, Y 2.38
T5: A 2.03, C 3.39, D 1.78, E 1.98, F 2.83, G 2.26, H 2.17, I 3.8, L 3.03, M 2.39, N 3.51, P 1.66, R 2.75, V 4.08, W 2.22, Y 1.85
Q6: C 2.63, D 2.01, E 2.88, F 2.33, G 2.55, H 2.75, I 2.75, K 1.7, L 3.52, M 2.2, N 1.6, P 2.41, R 3.29, S 2.04, V 3.73, W 3.31
L7: A 2.53, C 2.44, D 2.17, E 1.87, G 2.15, H 1.98, I 2.73, K 2.32, M 2.9, N 2.1, P 3.31, Q 2.71, R 4, S 2.37, T 3.64, Y 1.91
I8: A 2.03, C 2.87, D 2.22, E 2.44, F 2.5, G 1.42, K 2.3, L 1.67, M 3.01, N 2.09, P 1.65, Q 1.68, R 1.78, S 2.03, T 2.1, V 1.45, W 2.6, Y 4.04
H9: A 2.16, C 3.65, E 1.65, G 3.08, I 2.82, K 1.43, L 3.18, M 2.9, N 2.43, P 2.22, S 2.4, T 2.96, V 3.08, W 2.31, Y 3.11
V10: A 1.19, D 1.87, E 2.87, G 1.51, H 1.66, K 1.23, M 2.22, N 1.88, P 1.76, Q 1.71, R 2.21, S 2.33, T 1.73, W 2.2, Y 2.24
Y11: A 2.63, C 3.22, D 1.47, F 2.14, G 2.29
